Reference: paper PMC3927142

Key:
Experiment in all cases: flow cytometry on cells
E6.2.10 (human) = E6.2.10 (human) (UniProt P02751)
EI1.4.1 (human) = EI1.4.1 (human) (UniProt P02751)
EI2.4.6 (human) = EI2.4.6 (human) (UniProt P02751)

EGFR mutant 404SG (from UniProt P00533 25-1210) (receptor)
Kd (E6.2.10 (human)): 0.96 nM | Kd (EI1.4.1 (human)): 0.85 nM | Kd (EI2.4.6 (human)): 2.9 nM
